Experimental data published in patent US11123413B2, “Carbapenemases for use with antibiotics for the protection of the intestinal microbiome” (priority 2015, dated 2021).
Entries after “also recorded” stand apart in the source; their conditions may differ.

B1: P2A: broad spectrum carbapenemase, class B metallo-enzyme requiring zinc, SEQ ID NO: 37; P2A-21 = product of strain SYT-PP0602-21 (protein)
chain: ETGTISISQLNKNVWVHTELGYFNGEAVPSNGLVLNTSKGLVLVDSSWDNKLTKELIEMVEKKFQKRVTDVIITHAHADRIGGITALKERGIKAHSTALTAELAKNSGYEEPLGDLQTITSLKFGNTKVETFYPGKGHTEDNIVVWLPQYQILAGGCLVKSAEAKDLGNVADAYVNEWSTSIENVLKRYGNINSVVPGHGEVGDKGLLLHTLDLLK
B2: NDM: New Delhi metallo-β-lactamase NDM-1; NDM-68 = product of strain STY-NP1602-68 (STII Δ35, N-terminal GQQMETG) (protein)
chain: GQQMETGDQRFGDLVFRQLAPNVWQHTSYLDMPGFGAVASNGLIVRDGGRVLVVDTAWTDDQTAQILNWIKQEINLPVALAVVTHAHQDKMGGMDALHAAGIATYANALSNQLAPQEGMVAAQHSLTFAANGWVEPATAPNFGPLKVFYPGPGHTSDNITVGIDGTDIAFGGCLIKDSKAKSLGNLGDADTEHYAASARAFGAAFPKASMIVMSHSAPDSRAAITHTARMADKLR

How the values were obtained:
[1] = CENTA chromogenic beta-lactamase biological activity assay (P3A standard curve); type: biochemical; conditions: for stability of enzyme activity in cell lysates under differing storage conditions: fresh, frozen (−80° C.) or overnight at 4° C. lysate; for relative potency for CENTA degradation: midpoint of sigmoid curve, protein concentration vs OD405, P3A=1.0; for β-Lactamase: purified carbapenemase, P3A standard
Protocol: Biological activity of the carbapenemases, P2A, NDM, and KPC, present in the E. coli cell lysates were evaluated in a microtiter plate assay using CENTA as the chromogenic substrate (Bebrone et al. Antimicrob. Agents Chemother (2001) 45:1868-1871; van Berkel et al., J. Med. Chem. (2013) 56:6945-6953). Briefly, the assay was performed in a 50 mM NaH2PO4 buffer, pH 7.0 with supplementation of 100 uM ZnSO4, with CENTA (Calbiochem Cat #219475) at 50 ug/ml. The assays were run using purified P3A protein for the standard curve at protein concentrations of 0 ng/ml, 3 ng/ml, 6 ng/ml, 8 ng/ml, 10 ng/ml, 15 ng/ml, 20 ng/ml and 40 ng·ml. The plates were read at 405 nm after a 30 minute incubation using a microtiter plate reader. Cell lysates from the bacterial strains showing the highest protein expression levels by SDS-PAGE were evaluated for biological activity, which included P2A strains 5, 15, 20, 21, and 23, NDM strains 53, 58, 63, 68, and 69, and KPC strains 94, 96, 99, 100, 101, 102, 103, and 104 (Table 11). In addition, fresh lysate, frozen (−80° C.) lysate, or lysate stored overnight at 4° C. from strain P2A-21 were compared, and fresh and frozen (−80° C.) lysates from strain NDM-63 were compared to assess the stability of enzyme activity under differing storage conditions. All other lysates were kept frozen at −80° C. until assayed (Table 11).
Bacterial lysates were analyzed for protein expression by SDS-PAGE. Strong NDM expression was detected in all strains with good reproducibility between shake flasks (FIG. 4). Strong expression of P2A and KPC was also detected with good reproducibility between shake flasks (FIG. 5). In all cases, the vast majority of the protein was detected in the soluble fractions (FIG. 4 and FIG. 5). Biological activity was assessed in the cell lysates using the CENTA assay as described with P3A as the standard. […] The highest biological activity for NDM was from strain NDM-68.
Aliquots of bacteria were collected early in the fermentation cycle, 16 hours, for P2A and NDM, and 32 hours for KPC, prior to enzyme expression induction, and late in the cycle (48 hours) and subjected to SDS-PAGE (FIG. 6 and FIG. 7) and biological activity analyses (Table 15). […] Fermenters A, B, and C, reached high ODs. […] Bioreactor expression is achieved by changing of growth conditions, lowering phosphate conditions, and/or changing the promoter.
Frozen cell pellets retained from the fermenter studies, Fermenter A, P2A, Fermenter B, NDM, or from the shake flask studies, shake flask A, KPC, were lysed at 3×7000 psi in a Panda table top cell homogenizer. The lysate was spun at 45000 g for 1 hour, supernatants collected and pH adjusted to 5.5 with 1 M MES. The supernatants were spun at 45000 g for 30 minutes, to remove precipitated debris and filtered through a 0.45 um filter. The filtered supernatants were subjected to cation-exchange chromatography using an SP-sepharose column. NDM was subjected to an additional purification step using a hydrophobic column, phenyl sepharose. The fractions containing the peak levels of protein were concentrated and dialyzed against a 20 mM HEPES, pH 7.5, 150 mM NaCl buffer. The P2A and NDM samples were supplemented with 100 uM ZnSO4 in all steps of the purification process. Purified enzymes yields were calculated to be approximately 600 mg of protein per liter. Purified proteins were analyzed by SDS-PAGE (FIG. 8) and for biological activity (Table 16).
As different beta-lactamase enzymes display differential affinity and kinetics with diverse substrates, including antibiotics and the CENTA reagent, it was possible to determine the relative specific activities of P2A, NDM, and KPC compared to P3A for CENTA as a substrate now that purified proteins were available and therefore, protein concentrations were known. […]

E. coli (ATCC 25922) = assay: Antibiotic inactivation screening assay via E. coli growth (96 well plate, OD625); type: cell-based; conditions: for activity against cephalosporins and carbapenems / antibiotic degradation profile compared with P3A: 10, 100 or 1000 ng/ml enzyme; for inhibition by beta-lactamase inhibitors: SAM, TZP, CAZ/AVI combinations; for degradation of carbapenems: meropenem, imipenem, ertapenem, doripenem
Protocol: To mimic the activity of the carbapenemase enzymes, P2A, NDM, and KPC in the gut in the presence of high antibiotic concentrations, a novel screening assay was performed using a 96 well plate format. The assay was performed by mixing 10, 100 or 1000 μg/ml of the antibiotics, AMP: ampicillin, SAM: ampicillin/sulbactam, PIP: pipercillin, TZP: pipercillin/taxobactam, CRO: ceftriaxone, CTX: cefotaxime, CFZ: cefozolin, CXM: cefuroxime, CFP: cefoperazone, FEP: cefepime, CAZ: ceftazidime, MEM: meropenem, IPM: imipenem, ERT: ertapenem, DOR: doripenem, ATM: aztreonam, CDR: cefdinir; LEX: cephalexin; and CAZ/AVI: […]/avibactam with purified P2A, NDM, KPC, and P3A at concentrations of 10, 100, or 1000 ng/ml in each well of a 96 well microtiter plate. E. coli (ATCC 25922) was added immediately after the addition of the beta-lactamase enzymes, and the plates were incubated overnight. Bacterial growth was quantified by measuring the absorbance at 625 nm (OD625) in a Spectramax 384 Plus plate reader. The analysis was performed twice for each antibiotic. The beta-lactamase activity was determined as positive or negative based on the appearance of bacterial growth in the individual wells. An OD625 of 1.0 or greater indicated maximal bacterial growth, therefore complete antibiotic degradation and beta-lactamase activity. […] FIGS. 21A, 21B, and 21C display the comparison of the four beta-lactamases, P3A (SYN-004), P2A, NDM, and KPC with all 16 antibiotics at beta-lactamase concentrations of 10, 100, or 1000 ng/ml. […]

[2] = Oral P2A and intravenous ampicillin in jejunal-fistulated dogs; type: in vivo, laboratory beagles; conditions: peroral P2A 1 mg/kg liquid formulation, intravenous ampicillin 40 mg/kg
Protocol: The ability of P2A to degrade ampicillin in the dog intestinal tract was evaluated using laboratory beagles that had permanent jejunal fistulas. The fistulas allowed the repeated collection of jejunal chyme specimens from these animals. Dogs were treated with peroral P2A (1 mg/kg) in a liquid formulation (PBS buffer), and/or intravenous ampicillin (40 mg/kg). Serum samples were collected and serum ampicillin levels quantified. Jejunal chyme samples were collected and ampicillin and P2A levels were quantified. Ampicillin levels in serum and chyme were measured using a standard reverse phase HPLC method. P2A activity levels in chyme were determined spectrophotometrically using meropenem as a substrate. Meropenem hydrolysis was monitored at a wavelength of 297 nm.

[3] = fermenter cell lysate, 16 hr, Bioreactor A or B (standard phosphate)
[4] = fermenter cell lysate, 48 hr, Bioreactor A, B or D (standard phosphate)

Row | Molecule | Activity ([1]; bacterial cell lysate, shake flask culture, Flask A, CENTA, P3A as the standard) [mg/L] | Activity ([1]; bacterial cell lysate, shake flask culture, Flask B, CENTA, P3A as the standard) [mg/L] | Activity [1, 3] [mg/L] | Activity [1, 4] [mg/L] | stability of enzyme activity in cell lysates under differing storage conditions [1] | relative potency for CENTA degradation [1] | β-Lactamase ([1]; CENTA) [mg/L] | activity against cefepime and ceftazidime compared to NDM (E. coli (ATCC 25922)) | activity against cephalosporins and carbapenems (E. coli (ATCC 25922)) | antibiotic degradation profile compared with P3A (E. coli (ATCC 25922)) | inhibition by beta-lactamase inhibitors (E. coli (ATCC 25922)) | degradation of carbapenems (E. coli (ATCC 25922)) | ampicillin in jejunal chyme [2] | effect on serum levels of ampicillin [2] | Activity ([1]; fermenter cell lysate, 16 hr, Bioreactor C (extra zinc and extra phosphate)) [mg/L] | Activity ([1]; fermenter cell lysate, 48 hr, Bioreactor C (extra zinc and extra phosphate)) [mg/L]
1 | B1 | 19.6 | 17.0 | 3.2 | 59.7 | No difference in activity | 0.12 | 317.7 | activity was reduced against the cephalosporins, cefepime and ceftazidime | good activity against all carbapenems and most cephalosporins | broader degradation profile than P3A | resistant to inhibition by sulbactam, tazobactum, and avibactam | efficiently degraded meropenem, imipenem, ertapenem, and doripenem | degraded ampicillin | does not reduce serum levels of ampicillin | – | –
2 | B2 | – | – | 6.6 | 520.0 | No difference in activity | 0.71 | 1703.8 | – | efficiently degraded all tested cephalosporins and carbapenems | broader degradation profile than P3A | resistant to inhibition by sulbactam, tazobactum, and avibactam; also recorded: least affected by sulbactam | efficiently degraded meropenem, imipenem, ertapenem, and doripenem | – | – | 5.8 | 14.1
